± gives the standard deviation of the averaged measurements.
B1: library; a variant is named by its letters at N, in order (parent)
chain: GCUGUCACCGGUGCUUGGUACGUUAUAUUCAGCCGGUCUGAUGAGUCUNNNNNNAGACGAAACAGC

Columns and labels:
(6R,S)-folinic acid [1] = variants of: B1; assay: FACS-Seq fitted mean relative fluorescence mCherry/BFP without ligand (log10 relative fluorescence); HEK293T overexpressing SLC46A1; higher = higher reporter protein expression; settings: without (6R,S)-folinic acid; ligand present: no
Procedure, shortened: (§1)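 HEK293T libraries were lentivirally transduced with an mCherry reporter carrying the ribozyme switch and an EF1α-BFP marker, enriched, and incubated for 48 h with or without ligand before sorting into 6 bins by mCherry/BFP. Genomic DNA from each bin was PCR-amplified, barcoded and sequenced on MiSeq. Fluorescence is the fitted normal mean of the bin counts. The fit used log10(mCherry/BFP), and means were scaled to five spiked-in control ribozymes.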

(6R,S)-folinic acid [2] = variants of: B1; assay: normalized RNA/DNA level without ligand (relative to sTRSVctl = 100) (log10 (% of sTRSVctl)); HEK293T overexpressing SLC46A1; higher = less ribozyme self-cleavage, higher mRNA level; settings: without (6R,S)-folinic acid; ligand present: no
Protocol: (§2)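 Hammerhead (sTRSV) ribozyme switch libraries with a ligand aptamer grafted on stem I and a randomized N4-6 loop II, cloned into the 3' UTR of mCherry and transiently transfected into HEK293T cells; RNA-Seq 72 h post transfection with ligand added 1 h before transfection; RNA read count / plasmid DNA read count normalized to the non-cleaving sTRSVctl (x100), log10; sequences with >100 DNA reads. FACS-Seq: lentiviral library sorted into 6 bins after 48 h ligand, log-normal fit mean of mCherry/BFP scaled to controls. Printed sequences are partial switch sequences.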

(6R,S)-folinic acid [3] = variants of: B1; assay: FACS-Seq fitted mean relative fluorescence mCherry/BFP with ligand (log10 relative fluorescence); HEK293T overexpressing SLC46A1; ligand concentration (+) FACS-Seq: 6 mM; higher = higher reporter protein expression; settings: with (6R,S)-folinic acid; ligand present: yes
Procedure, shortened: as §1

(6R,S)-folinic acid [4] = variants of: B1; assay: normalized RNA/DNA level with ligand (relative to sTRSVctl = 100) (log10 (% of sTRSVctl)); HEK293T overexpressing SLC46A1; ligand concentration (+) RNA-Seq: 6 mM; higher = less ribozyme self-cleavage, higher mRNA level; settings: with (6R,S)-folinic acid; ligand present: yes
Protocol: as §2

Row | Variant | FACS-Seq fitted mean (log10) ((6R,S)-folinic acid [1]) | normalized RNA/DNA level without ligand (log10) ((6R,S)-folinic acid [2]) | FACS-Seq fitted mean (log10) ((6R,S)-folinic acid [3]) | normalized RNA/DNA level with ligand (log10) ((6R,S)-folinic acid [4])
1 | UACACG | 0.231 ± 0.14 | 1.808 ± 0.0037 | 0.348 ± 0.022 | 1.95 ± 0.053
2 | GACCCU | 0.102 ± 0.065 | 2.065 ± 0.0032 | -0.257 ± 0.21 | 2.04 ± 0.035
3 | CAAUAG | 0.376 ± 0.018 | 1.942 ± 0.0058 | 0.641 ± 0.16 | 2.011 ± 0.0065
4 | CAAUAA | 0.248 ± 0.034 | 1.934 ± 0.017 | 0.463 ± 0.091 | 1.97 ± 0.031
5 | GAAUGA | 0.25 ± 0.057 | 1.992 ± 0.0057 | 0.299 ± 0.2 | 2.02 ± 0.022
6 | GAAUGG | 0.297 ± 0.079 | 1.89 ± 0.013 | 0.386 ± 0.37 | 2.03 ± 0.019
7 | CAAGGG | -0.428 ± 0.17 | 1.88 ± 0.02 | -0.164 ± 0.057 | 1.99 ± 0.013
8 | CAAGGA | 0.62 ± 0.052 | 1.981 ± 0.019 | 0.722 ± 0.17 | 1.99 ± 0.052
9 | CAAGCU | 0.363 ± 0.071 | 2.047 ± 0.0037 | 0.443 ± 0.099 | 2.05 ± 0.043
10 | CAAGCA | 0.195 ± 0.065 | 2.018 ± 0.012 | 0.434 ± 0.14 | 2.03 ± 0.032
11 | GAAUCG | 0.149 ± 0.053 | 1.966 ± 0.0024 | 0.372 ± 0.14 | 2 ± 0.022
12 | GAAUCA | 0.429 ± 0.13 | 2.017 ± 0.005 | 0.409 ± 0.051 | 2.01 ± 0.03
13 | AACCGG | 0.00166 ± 0.089 | 2.032 ± 0.0087 | -0.0748 ± 0.11 | 2.04 ± 0.033
14 | CACAUA | 0.25 ± 0.021 | 1.978 ± 0.0043 | 0.219 ± 0.3 | 2.02 ± 0.035
15 | UAAUGG | 0.152 ± 0.043 | 1.601 ± 0.011 | 0.399 ± 0.18 | 1.923 ± 0.0091
16 | UAAUGA | 0.29 ± 0.014 | 1.872 ± 0.006 | 0.227 ± 0.042 | 2 ± 0.022
17 | UAAUGC | 0.147 ± 0.059 | 1.946 ± 0.017 | 0.234 ± 0.13 | 1.98 ± 0.032
18 | UAAUGU | 0.615 ± 0.038 | 1.896 ± 0.0068 | 0.695 ± 0.092 | 2 ± 0.055
19 | CAAGAG | 0.355 ± 0.047 | 1.903 ± 0.013 | 0.365 ± 0.14 | 1.98 ± 0.024
20 | GACAAC | 0.378 ± 0.076 | 1.987 ± 0.0049 | 0.472 ± 0.21 | 2.004 ± 0.013
21 | GACAAA | 0.367 ± 0.089 | 1.974 ± 0.0039 | 0.306 ± 0.081 | 2.007 ± 0.019
22 | GACGAA | 0.551 ± 0.09 | 1.963 ± 0.0039 | 0.69 ± 0.21 | 2 ± 0.04
23 | GACGAG | -0.054 ± 0.034 | 1.907 ± 0.0022 | 0.319 ± 0.29 | 2.01 ± 0.037
24 | GACGAU | 0.612 ± 0.086 | 1.954 ± 0.0091 | 0.648 ± 0.068 | 2 ± 0.037

Row | Variant | FACS-Seq fitted mean (log10) ((6R,S)-folinic acid [1]) | normalized RNA/DNA level without ligand (log10) ((6R,S)-folinic acid [2]) | FACS-Seq fitted mean (log10) ((6R,S)-folinic acid [3]) | normalized RNA/DNA level with ligand (log10) ((6R,S)-folinic acid [4])
25 | UACAUG | 0.195 ± 0.2 | 1.76 ± 0.0019 | 0.236 ± 0.015 | 1.97 ± 0.019
26 | UACAUA | 0.329 ± 0.1 | 1.959 ± 0.012 | 0.058 ± 0.017 | 2.002 ± 0.0044
27 | CAAGUU | 0.055 ± 0.13 | 2 ± 0.021 | 0.00566 ± 0.18 | 2.03 ± 0.046
28 | CACGUA | 0.476 ± 0.1 | 1.989 ± 0.019 | 0.649 ± 0.35 | 2.01 ± 0.025
29 | UAAGAG | 0.104 ± 0.05 | 1.667 ± 0.0094 | 0.3 ± 0.061 | 1.96 ± 0.038
30 | AACAAU | 0.338 ± 0.22 | 1.935 ± 0.0082 | 0.122 ± 0.3 | 1.97 ± 0.039
31 | AACAAA | 0.414 ± 0.011 | 1.967 ± 0.017 | 0.365 ± 0.15 | 1.99 ± 0.021
32 | AACAAC | -0.0136 ± 0.067 | 2.028 ± 0.006 | -0.491 ± 0.14 | 2.02 ± 0.024
33 | AACAAG | 0.152 ± 0.031 | 1.923 ± 0.0084 | 0.113 ± 0.2 | 2.02 ± 0.036
34 | UACCUC | 0.402 ± 0.35 | 2.052 ± 0.0094 | 0.585 ± 0.43 | 2.04 ± 0.049
35 | UACCUG | 0.402 ± 0.083 | 1.86 ± 0.039 | 0.39 ± 0.14 | 1.99 ± 0.052
36 | UACCAC | 0.907 ± 0.028 | 1.971 ± 0.0041 | 0.651 ± 0.047 | 1.994 ± 0.012
37 | UAAUUG | 0.377 ± 0.016 | 1.794 ± 0.0071 | 0.456 ± 0.012 | 1.972 ± 0.017
38 | GACACA | 0.265 ± 0.028 | 1.99 ± 0.02 | 0.656 ± 0.046 | 2 ± 0.037
39 | GACGGA | 0.373 ± 0.037 | 1.991 ± 0.014 | 0.557 ± 0.19 | 2.05 ± 0.033
40 | GACGGG | 0.31 ± 0.087 | 1.99 ± 0.011 | 0.302 ± 0.24 | 2.04 ± 0.051
41 | GACGGU | 0.318 ± 0.049 | 1.994 ± 0.016 | 0.486 ± 0.32 | 2.01 ± 0.029
42 | CACACA | 0.66 ± 0.12 | 1.97 ± 0.026 | 0.319 ± 0.036 | 1.98 ± 0.031
43 | CACACU | 0.136 ± 0.099 | 2.008 ± 0.011 | 0.187 ± 0.057 | 2.03 ± 0.011
44 | UACGAG | 0.31 ± 0.029 | 1.689 ± 0.014 | 0.472 ± 0.14 | 1.953 ± 0.013
45 | UACGAC | -0.293 ± 0.061 | 2.013 ± 0.0052 | -0.283 ± 0.015 | 2.01 ± 0.039
46 | UACGAU | 0.175 ± 0.046 | 1.9462 ± 0.0017 | 0.146 ± 0.33 | 2.02 ± 0.023
47 | AAAGUC | 0.0964 ± 0.057 | 2.066 ± 0.014 | 0.235 ± 0.08 | 2.03 ± 0.047
48 | AAAGUG | -0.0552 ± 0.019 | 1.675 ± 0.0049 | 0.25 ± 0.14 | 1.95 ± 0.031

Row | Variant | FACS-Seq fitted mean (log10) ((6R,S)-folinic acid [1]) | normalized RNA/DNA level without ligand (log10) ((6R,S)-folinic acid [2]) | FACS-Seq fitted mean (log10) ((6R,S)-folinic acid [3]) | normalized RNA/DNA level with ligand (log10) ((6R,S)-folinic acid [4])
49 | CAAUGA | 0.153 ± 0.14 | 1.998 ± 0.0058 | 0.267 ± 0.16 | 2.02 ± 0.049
50 | GAAGGC | 0.492 ± 0.035 | 1.951 ± 0.006 | 0.635 ± 0.019 | 2.009 ± 0.0033
51 | AACGUA | 0.196 ± 0.079 | 1.9883 ± 0.00019 | 0.207 ± 0.071 | 2.02 ± 0.026
52 | AACGUG | 0.4305 ± 0.0017 | 1.874 ± 0.0049 | 0.715 ± 0.2 | 1.98 ± 0.029
53 | AAAUCG | 0.416 ± 0.0066 | 1.955 ± 0.0094 | 0.42 ± 0.12 | 2.03 ± 0.036
54 | AAAUCC | 0.504 ± 0.068 | 2.044 ± 0.013 | 0.398 ± 0.23 | 2.03 ± 0.044
55 | GAAGAU | 0.124 ± 0.065 | 1.968 ± 0.0035 | 0.379 ± 0.13 | 2.03 ± 0.032
56 | GAAGAG | 0.0515 ± 0.088 | 1.837 ± 0.0055 | 0.356 ± 0.15 | 2.03 ± 0.034
57 | GAAGAC | 0.635 ± 0.035 | 1.97 ± 0.0057 | 0.574 ± 0.24 | 2.03 ± 0.025
58 | AAAGGG | 0.172 ± 0.033 | 1.671 ± 0.016 | 0.631 ± 0.087 | 1.97 ± 0.049
59 | AAAGGA | 0.158 ± 0.1 | 1.909 ± 0.007 | 0.355 ± 0.16 | 2 ± 0.027
60 | AAAGGC | 0.486 ± 0.051 | 2.041 ± 0.0056 | 0.631 ± 0.18 | 2.04 ± 0.034
61 | GAAGUA | 0.299 ± 0.013 | 1.966 ± 0.0082 | 0.331 ± 0.045 | 2.014 ± 0.019
62 | GAAGUG | 0.327 ± 0.098 | 1.8629 ± 0.0002 | 0.369 ± 0.033 | 1.99 ± 0.026
63 | GAAGUU | 0.522 ± 0.18 | 2.007 ± 0.0088 | 0.481 ± 0.2 | 2.04 ± 0.03
64 | UACGGG | 0.198 ± 0.013 | 1.704 ± 0.0067 | 0.717 ± 0.3 | 1.97 ± 0.053
65 | UACGGU | 0.419 ± 0.099 | 1.918 ± 0.012 | 0.282 ± 0.041 | 1.98 ± 0.024
66 | UACGGA | 0.537 ± 0.046 | 1.8816 ± 0.00018 | 0.817 ± 0.11 | 2 ± 0.029
67 | CACGCA | 0.164 ± 0.12 | 2.025 ± 0.013 | 0.119 ± 0.063 | 2.024 ± 0.011
68 | UAAUAU | 0.201 ± 0.005 | 1.922 ± 0.0069 | 0.297 ± 0.077 | 1.99 ± 0.026
69 | UAAUAG | 0.255 ± 0.04 | 1.75 ± 0.028 | 0.58 ± 0.11 | 1.96 ± 0.057
70 | AAAUUU | 0.415 ± 0.0088 | 2.053 ± 0.0076 | 0.218 ± 0.093 | 2.05 ± 0.039
71 | AAAUUC | 0.629 ± 0.14 | 2.03 ± 0.0039 | 0.471 ± 0.059 | 2.018 ± 0.016
72 | AAAUUG | 0.0771 ± 0.044 | 1.921 ± 0.0078 | 0.102 ± 0.18 | 2.02 ± 0.061
